The text below walks through data of US5663314.

One test has as its target T1, Band-3 peptide.
T1 sequence (peptide): MEELQDDYEDDMEERR

The target in another test is T2, ETE peptide.
T2 sequence (peptide): RRREEETEEE

The next test has as its target T3, RR-SRC peptide.
T3 sequence (peptide): RRLIEDAEYAARG

Test [1] deals with Recombinant ERK2 expressed in E. coli (Rattus norvegicus (Rat)) (UniProt P63086).
Another test concerns the target T4, S6 peptide.
T4 sequence (peptide): RRLSSLRA

For another test, the target named is T5, Syntide-2.
T5 sequence (peptide): PLARTLSVAGLPGKK

A further test deals with T6, TEY peptide.
T6 sequence (peptide): PEHDHTGFLTEYVATRWYR

For test [2], the target named is bovine myelin basic protein (bovine) (UniProt P02687).
Chain of bovine myelin basic protein (bovine) (P02687 whole entry): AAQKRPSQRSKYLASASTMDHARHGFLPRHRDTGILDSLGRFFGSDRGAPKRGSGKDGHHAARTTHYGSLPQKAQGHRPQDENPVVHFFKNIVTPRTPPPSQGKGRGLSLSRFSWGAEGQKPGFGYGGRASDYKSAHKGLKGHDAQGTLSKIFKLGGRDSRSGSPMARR

With “MAPK activator 1 (MAPKK1a), 46 kDa polypeptide purified from EGF-stimulated A431 cells (enzyme)”, the Phosphorylation with Band-3 peptide was below 0.005 nmol/min/mg; in the test with Casein, below 0.005 nmol/min/mg; in the test with Denatured enolase, below 0.005 nmol/min/mg; with ETE peptide it was below 0.005 nmol/min/mg; with Histones, 0.02 nmol/min/mg; in the test with Kemptide it was below 0.005 nmol/min/mg. The Phosphorylation with RR-SRC peptide is below 0.005 nmol/min/mg; in [1] it was 150 nmol/min/mg; with Ribosomal S6 protein, below 0.005 nmol/min/mg; with S6 peptide, below 0.005 nmol/min/mg; with Syntide-2 it was below 0.005 nmol/min/mg; in the test with TEY peptide, 0.04 nmol/min/mg. In [2], this substance had a Phosphorylation of 0.1 nmol/min/mg.
